From the supplement of paper PMC5998384

How the values were obtained:
HeLa Kyoto [1] = assay: melting temperature (median over replicates), in situ; higher = more thermally stable
HeLa Kyoto [2] = assay: solubility in G1/S (NP-40 vs SDS abundance) (log2 ratio); higher = more soluble; conditions: cell cycle stage: G1/S
HeLa Kyoto [3] = assay: solubility change mitosis vs G1/S (difference of NP-40 vs SDS log2 ratios) (log2 ratio difference); higher = more soluble in mitosis
HeLa Kyoto [4] = assay: thermal stability score vs G1/S (z-score of summed log2 fold changes over temperatures); higher = more thermally stable than in G1/S
[5] = cell cycle stage: early G1 (4.5 h after nocodazole release)
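Wherever melting temperature (median over replicates), in situ is given: HeLa Kyoto cells synchronized by double thymidine or nocodazole block, proteins quantified by TMT10plex mass spectrometry, three independent biological replicates.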
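Wherever solubility change mitosis vs G1/S (difference of NP-40 vs SDS log2 ratios) is given: synchronized HeLa Kyoto cells (double thymidine block for G1/S, nocodazole release for mitosis), protein amounts in NP-40 versus SDS lysates quantified by mass spectrometry, three biological replicates.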
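Wherever solubility in G1/S (NP-40 vs SDS abundance) is given: HeLa Kyoto cells arrested at G1/S by double thymidine block, proteins quantified by TMT10plex mass spectrometry in mild NP-40 versus SDS extracts, three biological replicates.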
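Wherever thermal stability score vs G1/S (z-score of summed log2 fold changes over temperatures) is given: synchronized HeLa Kyoto cells, proteins quantified by TMT10plex mass spectrometry, three biological replicates, mitosis taken 0.5 h after nocodazole release, G1/S directly after double thymidine block.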

Sequence	melting temperature (HeLa Kyoto [1]; cell cycle stage: G1/S) [°C]	melting temperature (HeLa Kyoto [1]; cell cycle stage: mitosis) [°C]	solubility in G1/S (log2) (HeLa Kyoto [2])	solubility change mitosis (log2) (HeLa Kyoto [3])	thermal stability score (HeLa Kyoto [4]; [5])	thermal stability score (HeLa Kyoto [4]; cell cycle stage: mitosis)
MPHLPLASFRPPFWGLRHSRGLPRFHSVSTQSEPHGSPISRRNREAKQKRLREKQATLEAEIAGESKSPAESIKAWRPKELVLYEIPTKPGEKKDVSGPLPPAYSPRYVEAAWYPWWVREGFFKPEYQARLPQATGETFSMCIPPPNVTGSLHIGHALTVAIQDALVRWHRMRGDQVLWVPGSDHAGIATQAVVEKQLWKERGVRRHELSREAFLREVWQWKEAKGGEICEQLRALGASLDWDRECFTMDVGSSVAVTEAFVRLYKAGLLYRNHQLVNWSCALRSAISDIEVENRPLPGHTQLRLPGCPTPVSFGLLFSVAFPVDGEPDAEVVVGTTRPETLPGDVAVAVHPDDSRYTHLHGRQLRHPLMGQPLPLITDYAVQPHVGTGAVKVTPAHSPADAEMGARHGLSPLNVIAEDGTMTSLCGDWLQGLHRFVAREKIMSVLSEWGLFRGLQNHPMVLPICSRSGDVIEYLLKNQWFVRCQEMGARAAKAVESGALELSPSFHQKNWQHWFSHIGDWCVSRQLWWGHQIPAYLVVEDHAQGEEDCWVVGRSEAEAREVAAELTGRPGAELTLERDPDVLDTWFSSALFPFSALGWPQETPDLARFYPLSLLETGSDLLLFWVGRMVMLGTQLTGQLPFSKVLLHPMVRDRQGRKMSKSLGNVLDPRDIISGVEMQVLQEKLRSGNLDPAELAIVAAAQKKDFPHGIPECGTDALRFTLCSHGVQAGDLHLSVSEVQSCRHFCNKIWNALRFILNALGEKFVPQPAEELSPSSPMDAWILSRLALAAQECERGFLTRELSLVTHALHHFWLHNLCDVYLEAVKPVLWHSPRPLGPPQVLFSCADLGLRLLAPLMPFLAEELWQRLPPRPGCPPAPSISVAPYPSACSLEHWRQPELERRFSRVQEVVQVLRALRATYQLTKARPRVLLQSSEPGDQGLFEAFLEPLGTLGYCGAVGLLPPGAAAPSGWAQAPLSDTAQVYMELQGLVDPQIQLPLLAARRYKLQKQLDSLTARTPSEGEAGTQRQQKLSSLQLELSKLDKAASHLRQLMDEPPAPGSPEL [VARS2]	52	52.1	-0.0605	0.0161	0.335	0.452
MPILKQLVSSSVHSKRRSRADLTAEMISAPLGDFRHTMHVGRAGDAFGDTSFLNSKAGEPDGESLDEQPSSSSSKRSLLSRKFRGSKRSQSVTRGEREQRDMLGSLRDSALFVKNAMSLPQLNEKEAAEKGTSKLPKSLSSSPVKKANDGEGGDEEAGTEEAVPRRNGAAGPHSPDPLLDEQAFGDLTDLPVVPKATYGLKHAESIMSFHIDLGPSMLGDVLSIMDKEEWDPEEGEGGYHGDEGAAGTITQAPPYAVAAPPLARQEGKAGPDLPSLPSHALEDEGWAAAAPSPGSARSMGSHTTRDSSSLSSCTSGILEERSPAFRGPDRARAAVSRQPDKEFSFMDEEEEDEIRV [CDC42EP4]	53.6	51.8	0.487	-0.0259	-3.73	-2.19
MPKCPKCNKEVYFAERVTSLGKDWHRPCLKCEKCGKTLTSGGHAEHEGKPYCNHPCYAAMFGPKGFGRGGAESHTFK [CRIP1]	57.6	53.5	-0.362	0.414	-4.54	-5.63
MPKFKAARGVGGQEKHAPLADQILAGNAVRAGVREKRRGRGTGEAEEEYVGPRLSRRILQQARQQQEELEAEHGTGDKPAAPRERTTRLGPRMPQDGSDDEDEEWPTLEKAATMTAAGHHAEVVVDPEDERAIEMFMNKNPPARRTLADIIMEKLTEKQTEVETVMSEVSGFPMPQLDPRVLEVYRGVREVLSKYRSGKLPKAFKIIPALSNWEQILYVTEPEAWTAAAMYQATRIFASNLKERMAQRFYNLVLLPRVRDDVAEYKRLNFHLYMALKKALFKPGAWFKGILIPLCESGTCTLREAIIVGSIITKCSIPVLHSSAAMLKIAEMEYSGANSIFLRLLLDKKYALPYRVLDALVFHFLGFRTEKRELPVLWHQCLLTLVQRYKADLATDQKEALLELLRLQPHPQLSPEIRRELQSAVPRDVEDVPITVE [BYSL]	48.3	49	-0.343	0.115	1.85	5.44
MPKGGRKGGHKGRARQYTSPEEIDAQLQAEKQKAREEEEQKEGGDGAAGDPKKEKKSLDSDESEDEEDDYQQKRKGVEGLIDIENPNRVAQTTKKVTQLDLDGPKELSRREREEIEKQKAKERYMKMHLAGKTEQAKADLARLAIIRKQREEAARKKEEERKAKDDATLSGKRMQSLSLNK [PDAP1]	57.9	54.2	0.734	0.473	-6.85	-6.55
MPKHEFSVDMTCGGCAEAVSRVLNKLGGVKYDIDLPNKKVCIESEHSMDTLLATLKKTGKTVSYLGLE [ATOX1]	54.8	52.8	-0.375	0.149	-3.27	-2.04
MPKPINVRVTTMDAELEFAIQPNTTGKQLFDQVVKTVGLREVWFFGLQYVDSKGYSTWLKLNKKVTQQDVKKENPLQFKFRAKFFPEDVSEELIQEITQRLFFLQVKEAILNDEIYCPPETAVLLASYAVQAKYGDYNKEIHKPGYLANDRLLPQRVLEQHKLTKEQWEERIQNWHEEHRGMLREDSMMEYLKIAQDLEMYGVNYFEIKNKKGTELWLGVDALGLNIYEHDDKLTPKIGFPWSEIRNISFNDKKFVIKPIDKKAPDFVFYAPRLRINKRILALCMGNHELYMRRRKPDTIEVQQMKAQAREEKHQKQLERAQLENEKKKREIAEKEKERIEREKEELMERLKQIEEQTIKAQKELEEQTRKALELDQERKRAKEEAERLEKERRAAEEAKSAIAKQAADQMKNQEQLAAELAEFTAKIALLEEAKKKKEEEATEWQHKAFAAQEDLEKTKEELKTVMSAPPPPPPPPVIPPTENEHDEHDENNAEASAELSNEGVMNHRSEEERVTETQKNERVKKQLQALSSELAQARDETKKTQNDVLHAENVKAGRDKYKTLRQIRQGNTKQRIDEFEAM [RDX]	57.1	56.4	0.0601	0.0339	0.702	0.805
MPKRKVSSAEGAAKEEPKRRSARLSAKPPAKVEAKPKKAAAKDKSSDKKVQTKGKRGAKGKQAEVANQETKEDLPAENGETKTEESPASDEAGEKEAKSD [HMGN1]	59	56.4	0.0899	1.47	-2.25	-4.73
MPKVKRSRKAPPDGWELIEPTLDELDQKMREAETEPHEGKRKVESLWPIFRIHHQKTRYIFDLFYKRKAISRELYEYCIKEGYADKNLIAKWKKQGYENLCCLRCIQTRDTNFGTNCICRVPKSKLEVGRIIECTHCGCRGCSG [BUD31]	51.1	50.9	-0.0954	0.184	1.19	0.411
MPKVKSGAIGRRRGRQEQRRELKSAGGLMFNTGIGQHILKNPLIINSIIDKAALRPTDVVLEVGPGTGNMTVKLLEKAKKVVACELDPRLVAELHKRVQGTPVASKLQVLVGDVLKTDLPFFDTCVANLPYQISSPFVFKLLLHRPFFRCAILMFQREFALRLVAKPGDKLYCRLSINTQLLARVDHLMKVGKNNFRPPPKVESSVVRIEPKNPPPPINFQEWDGLVRITFVRKNKTLSAAFKSSAVQQLLEKNYRIHCSVHNIIIPEDFSIADKIQQILTSTGFSDKRARSMDIDDFIRLLHGFNAEGIHFS [DIMT1]	54.2	53.2	-0.509	0.276	0.644	1.74
MPLFATNPFDQDVEKATSEMNTAEDWGLILDICDKVGQSRTGPKDCLRSIMRRVNHKDPHVAMQALTLLGACVSNCGKIFHLEVCSRDFASEVSNVLNKGHPKVCEKLKALMVEWTDEFKNDPQLSLISAMIKNLKEQGVTFPAIGSQAAEQAKASPALVAKDPGTVANKKEEEDLAKAIELSLKEQRQQSTTLSTLYPSTSSLLTNHQHEGRKVRAIYDFEAAEDNELTFKAGEIITVLDDSDPNWWKGETHQGIGLFPSNFVTADLTAEPEMIKTEKKTVQFSDDVQVETIEPEPEPAFIDEDKMDQLLQMLQSTDPSDDQPDLPELLHLEAMCHQMGPLIDEKLEDIDRKHSELSELNVKVMEALSLYTKLMNEDPMYSMYAKLQNQPYYMQSSGVSGSQVYAGPPPSGAYLVAGNAQMSHLQSYSLPPEQLSSLSQAVVPPSANPALPSQQTQAAYPNTMVSSVQGNTYPSQAPVYSPPPAATAAAATADVTLYQNAGPNMPQVPNYNLTSSTLPQPGGSQQPPQPQQPYSQKALL [STAM]	50.3	52	0.292	-0.163	0.119	0.654
MPLLFLERFPWPSLRTYTGLSGLALLGTIISAYRALSQPEAGPGEPDQLTASLQPEPPAPARPSAGGPRARDVAQYLLSDSLFVWVLVNTACCVLMLVAKLIQCIVFGPLRVSERQHLKDKFWNFIFYKFIFIFGVLNVQTVEEVVMWCLWFAGLVFLHLMVQLCKDRFEYLSFSPTTPMSSHGRVLSLLVAMLLSCCGLAAVCSITGYTHGMHTLAFMAAESLLVTVRTAHVILRYVIHLWDLNHEGTWEGKGTYVYYTDFVMELTLLSLDLMHHIHMLLFGNIWLSMASLVIFMQLRYLFHEVQRRIRRHKNYLRVVGNMEARFAVATPEELAVNNDDCAICWDSMQAARKLPCGHLFHNSCLRSWLEQDTSCPTCRMSLNIADNNRVREEHQGENLDENLVPVAAAEGRPRLNQHNHFFHFDGSRIASWLPSFSVEVMHTTNILGITQASNSQLNAMAHQIQEMFPQVPYHLVLQDLQLTRSVEITTDNILEGRIQVPFPTQRSDSIRPALNSPVERPSSDQEEGETSAQTERVPLDLSPRLEETLDFGEVEVEPSEVEDFEARGSRFSKSADERQRMLVQRKDELLQQARKRFLNKSSEDDAASESFLPSEGASSDPVTLRRRMLAAAAERRLQKQQTS [AMFR]	51.3	51.3	-0.387	-0.081	0.15	-0.174
MPLTGVEPARMNRKKGDKGFESPRPYKLTHQVVCINNINFQRKSVVGFVELTIFPTVANLNRIKLNSKQCRIYRVRINDLEAAFIYNDPTLEVCHSESKQRNLNYFSNAYAAAVSAVDPDAGNGELCIKVPSELWKHVDELKVLKIHINFSLDQPKGGLHFVVPSVEGSMAERGAHVFSCGYQNSTRFWFPCVDSYSELCTWKLEFTVDAAMVAVSNGDLVETVYTHDMRKKTFHYMLTIPTAASNISLAIGPFEILVDPYMHEVTHFCLPQLLPLLKHTTSYLHEVFEFYEEILTCRYPYSCFKTVFIDEAYVEVAAYASMSIFSTNLLHSAMIIDETPLTRRCLAQSLAQQFFGCFISRMSWSDEWVLKGISGYIYGLWMKKTFGVNEYRHWIKEELDKIVAYELKTGGVLLHPIFGGGKEKDNPASHLHFSIKHPHTLSWEYYSMFQCKAHLVMRLIENRISMEFMLQVFNKLLSLASTASSQKFQSHMWSQMLVSTSGFLKSISNVSGKDIQPLIKQWVDQSGVVKFYGSFAFNRKRNVLELEIKQDYTSPGTQKYVGPLKVTVQELDGSFNHTLQIEENSLKHDIPCHSKSRRNKKKKIPLMNGEEVDMDLSAMDADSPLLWIRIDPDMSVLRKVEFEQADFMWQYQLRYERDVVAQQESILALEKFPTPASRLALTDILEQEQCFYRVRMSACFCLAKIANSMVSTWTGPPAMKSLFTRMFCCKSCPNIVKTNNFMSFQSYFLQKTMPVAMALLRDVHNLCPKEVLTFILDLIKYNDNRKNKFSDNYYRAEMIDALANSVTPAVSVNNEVRTLDNLNPDVRLILEEITRFLNMEKLLPSYRHTITVSCLRAIRVLQKNGHVPSDPALFKSYAEYGHFVDIRIAALEAVVDYTKVDRSYEELQWLLNMIQNDPVPYVRHKILNMLTKNPPFTKNMESPLCNEALVDQLWKLMNSGTSHDWRLRCGAVDLYFTLFGLSRPSCLPLPELGLVLNLKEKKAVLNPTIIPESVAGNQEAANNPSSHPQLVGFQNPFSSSQDEEEIDMDTVHDSQAFISHHLNMLERPSTPGLSKYRPASSRSALIPQHSAGCDSTPTTKPQWSLELARKGTGKEQAPLEMSMHPAASAPLSVFTKESTASKHSDHHHHHHHEHKKKKKKHKHKHKHKHKHDSKEKDKEPFTFSSPASGRSIRSPSLSD [TAF2]	49.6	50.2	-0.657	0.123	0.286	0.175
